Common to all, as to type: biochemical
A short description of experiment [1]: LC-MS assay of GH3 conjugation of IAA with Asp or Glu. Particulars: LC-MS; for Detected auxin conjugates: IAA-Asp: IAA with Asp; for Detected auxin conjugates: IAA-Glu: IAA with Glu. Summed up:
(§1)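 N-terminal His-tagged GH3 homologs, expressed in E. coli C41(DE3) and Ni-NTA purified, at 44 to 164 μg/mL incubated 3 h at 30 °C in 20 mM Tris-HCl pH 8.0, 5 mM MgCl2, 1 mM DTT, 5 mM ATP, 5 mM auxin (IAA, 2,4-D or dicamba) and 5 mM Asp or Glu. Conjugates quantified by LC-MS against standards after MeOH precipitation; kinetics from Michaelis-Menten fits of initial velocities.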

A short description of experiment [2]: LC-MS assay of GH3 conjugation of 2,4-D with Asp or Glu. The settings on record: LC-MS; for Detected auxin conjugates: 2,4-D-Asp: 2,4-D with Asp; for Detected auxin conjugates: 2,4-D-Glu: 2,4-D with Glu. Summed up: as §1
Experiment [3] can be described thus: LC-MS assay of GH3 conjugation of dicamba with Asp or Glu. Particulars: LC-MS; for Detected auxin conjugates: Dicamba-Asp: dicamba with Asp; for Detected auxin conjugates: Dicamba-Glu: dicamba with Glu. Summed up: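 GH3 superfamily homologs, found by Blast searches of public databases using AtGH3.17 (Q9FZ87), were synthesized with E. coli-optimized codons and an N-terminal his-tag, expressed in OverExpress C41(DE3) cells after 0.2 mM IPTG induction at 16° C., and Ni-NTA purified. Conjugation of dicamba with Asp or Glu was measured by LC-MS using conjugate standards.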

B1: BjACC38383.1: GH3 protein, accession ACC38383.1 (protein, listed as Brassica juncea)
chain: MIIISYYNEEEKGKVLEDLTWNVKQIQDDLLKEILTLNSGTEYLQNFLHGSSAKELFKKNLPIVTYKDVKPYIDRVANGESSNIISTLPITNFFNSSGTSGGANKILPSNSKYLDGSAFSTDLLAHVIRKHVKGVERGKGMLFFLTGHDTKTPGGFPIEDGISWYLKSDYFKNRPSTWFYSYTSPDEVMLGSDLKENLYCHLLCGLVQRDEVTRIGSTFASGMVRVIKVLEDSWKELCSNIRSGNLSEWITDSGCRNSVSLVLGGQPRHKLSDEIESICSQKSWKGIMKKLWPQTLCIEAIATGSMAQYVPTLKHYSGDVPLVSTIYASSESMFGINTDPLCQPENTSYTLMPNISYFEFIPTEGGNGDVVDLADVKLGCSYQLLVTNLWGLYRMRIGDIVKVTGFHNKAPKFRVIGRENTLLSIDTDRTTEEYLLKAVNRARLVLESSDLRLVAFTSYADISSSPGHYVIYWEVKTKEEDMKELDEKTFLECCSVMEDTLDEEYMYCRANEFIGPLEIRVVNDGTFDSLMNLSISKGASITQYKYWRQMWLLDSSVLSEHLMCLSHDIWSKKRGRNVCVLSVLSWFLLTIF
Consider B1, for which, in experiment [1], the “Detected auxin conjugates: IAA-Asp” value is listed as “Yes” and the “Detected auxin conjugates: IAA-Glu” value is on record as “No”. In addition, in experiment [2], the “Detected auxin conjugates: 2,4-D-Asp” value was “No” and the “Detected auxin conjugates: 2,4-D-Glu” value is listed as “No”. In experiment [3], the “Detected auxin conjugates: Dicamba-Asp” value was “No” and the “Detected auxin conjugates: Dicamba-Glu” value was “No”.

B2: Br040953: GH3 protein, Bra040953 (protein, listed as Brassica rapa)
chain: MMIPSYDPNDTEAGLQLLEDLTTNADAIQQQVLHQILSQNSETEYLRSFLDGESCNIQENFKNKAPVVNYEDIKPFIQRISDGDSSDILSAQPITELLTSSGTSGGKPKFMPSTAEELDRKTFFYNMLVPVMNKFVNGLDEGKGMYLLFIKPEIKTPSGLQARPVLTSYYKSEQFKNRPFNKYNVITSPNDAILCEDSQQSMYCQLLCGLVQRSDVLRLGAIFASAFLRAVKFLENHFTELCADIRTGTVASWITDSGCRDSVLSILNGPNQELADEIEALFNAKSREGILKRIWPKTKYIEVIVTGSMAQYIPTLEFYSGGLPLVSVMYASSECFFGLNINPLCKPSDVSYTLLPNMAYFEFLPVDDKSHEETHLESRSTDDVSLTDKDRIVDLVSVEIGRYYELIITTFAGLYRYRVGDILKVTGFHNKAPQFSFVERRNVVLSIDTDKTSEEDLMKAVTQAKLNHLQGLFLLTEYTSYADTSSIPGHYVLFWELKPRYDNDPPKLDKKMMEDCCSEVEDCLDYVYRRCRNKDRSIGALEIRVVSLGTFDALMDFSISQGSSVNQYKTPRCVKSGGALQILDSRVIGRFFTKRVPQWEPLGLDS
On to B2, for which, in experiment [1], the “Detected auxin conjugates: IAA-Asp” value is listed as “Yes” and the “Detected auxin conjugates: IAA-Glu” value is listed as “Yes”. Moreover, in experiment [2], the “Detected auxin conjugates: 2,4-D-Asp” value is “Yes” and the “Detected auxin conjugates: 2,4-D-Glu” value is given as “Yes”. In experiment [3], the “Detected auxin conjugates: Dicamba-Asp” value is “No” and the “Detected auxin conjugates: Dicamba-Glu” value is “No”.

B3: Br016359: GH3 protein, Bra016359 (protein, listed as Brassica rapa)
chain: MSVISVLTEKANDKLKILEDLTSNVKQIQDNVLEEILTLNTNTEYLQRFFHGKFDKEIFKKNVPVGTYEDVKPYIQRVANGEPSNVISTRPITGFLLSSGTSGGAQKIMPWNEKFLDYLTFMYDLRMHVITNYVKGLEKGKAMMFYFTKLESTTASGLPARTASSSYLKSSYFKNRPCNWYYTYTSPDEVILCPDNKQSLYCHLLCGLVQRNEVTRMGSIFASVMVRAIKFLEDSWEELCSNIRSGQLSEWITDPGCRDSVSMVLGGPHPEVANTVEKICNEKCWKGILKRLWPRTKYIETIVTGSMAQYVPTLNYYCNDMLPLVSTIYASSETTFGLNLNPLCKPEDVSYTIMPNVSYFEFIPLDGDENDVVDLADLKLGCSYELVVTNFSGLYRIRVGDILLVTGFYNKAPQLRFIRRDNVVLSIDMDKTNEEDLFNAVNRAKLIINSSGLMLTDFTSHGDISTIPGHYVIYWEVEDKREDKTKHICMELKGDAFSECCLVMEDSFDNVYKRCRFREKTVGPLEIKVVLHGTFDSLMDFFISQGASIGQYKTPRCIGSGKPLELLEKNVVATFFSTGDCSFKN
As to B3, in experiment [1], the “Detected auxin conjugates: IAA-Asp” value is on record as “Yes” and the “Detected auxin conjugates: IAA-Glu” value was “No”. Further, in experiment [2], the “Detected auxin conjugates: 2,4-D-Asp” value is listed as “Yes” and the “Detected auxin conjugates: 2,4-D-Glu” value is “No”. In experiment [3], the “Detected auxin conjugates: Dicamba-Asp” value is reported as “No” and the “Detected auxin conjugates: Dicamba-Glu” value is reported as “No”.

The values above are taken from US20150351390A1, “COMPOSITIONS AND METHODS FOR AUXIN-ANALOG CONJUGATION” (PIONEER HI-BRED INTERNATIONAL, INC., priority 2012, published 2015).
